This is an account of results in paper PMC6415414.

For this data set the following is noted: N-glycosylation at N74.

As for “Candida antarctica lipase B (CaLB): Asn74Ala (CaLB-degl), purified free enzyme, pNPB assay”, the enzymatic_activity result was “decreases, hydrolytic activity 10.49 to 7.57 µmol(min∙mg)−1”. Still for that read-out and setting: in the case of “Candida antarctica lipase B (CaLB): Asn74Ser, S. cerevisiae MTP culture supernatant, pNPB assay” it was “decreases”; in that of “Candida antarctica lipase B (CaLB): Asn74Ala, S. cerevisiae MTP culture supernatant, pNPB assay”, “no change, 94% relative hydrolytic activity”. Still for that read-out and setting: for “Candida antarctica lipase B (CaLB): Asn74Ala (CaLB-degl), ε-caprolactone polymerization in aqueous toluene” the value was “increases, Free enzyme: Mn 1100 to 1900 Da, Coligo 13% to 29% (factor 1.7). Immobilized: Mn 5200 to 6700 Da, Coligo 86% to 91%”. In the case of “Candida antarctica lipase B (CaLB): Asn74Ala (CaLB-degl and CaLB-degl-lid), residual activity after 10 min heat incubation”, the stability_or_folding entry is “decreases, >50% activity lost at 48 °C and almost inactive at 58 °C, vs 42% relative activity at 58 °C for wt”.
